Data from patent US11529390B2, “PCSK9 inhibitory polypolypeptides and methods of use” (INSTITUT DE CARDIOLOGIE DE MONTREAL, priority 2015, dated 2022).
Read-outs that look alike come from different tables or passages of the source.

B1: SEQ ID. NO. 7: polypeptide of the invention; in b217 apparently the truncated CBD-CT form of GRP94 (protein)
chain: MRALWVLGLCCVLLTFGSVRAYGWSGNMERIMKAQAYQTGKDISTNYYASQKKTFEINPRHPLIRDMLRRIKEDEDDKTVLDLAVVLFETATLRSGYLLPDTKAYGDRIERMLRLSLNIDPDAKVEEEPEEEPEETAEDTTEDTEQDEDEEMDVGTDEEEETAKESTAE
B2: SEQ ID. NO. 46: secretable HA-tagged GRP94 signal polypeptide, client-binding domain and C-terminal domain lacking KDEL (CBD-CT) (protein)
chain: MRALWVLGLCCVLLTFGSVRAYGWSGNMERIMKAQAYQTGKDISTNYYASQKKTFEINPRHPLIRDMLRRIKEDEDDKTVLDLAVVLFETATLRSGYLLPDTKAYGDRIERMLRLSLNIDPDAKVEEEPEEEPEETAEDTTEDTEQDEDEEMDVGTDEEEETAKESTAEYPYDVPDYA
B3: SEQ ID. NO. 65: alanine-scanning mutant of GRP94-ΔKDEL, CBD region YGWSGNMERIMKAQAYATGKAISTNAA (SEQ ID. NO. 79) (protein, listed as Homo Sapiens)
chain: MRALWVLGLCCVLLTFGSVRADDEVDVDGTVEEDLGKSREGSRTDDEVVQREEEAIQLDGLNASQIRELREKSEKFAFQAEVNRMMKLIINSLYKNKEIFLRELISNASDALDKIRLISLTDENALSGNEELTVKIKCDKEKNLLHVTDTGVGMTREELVKNLGTIAKSGTSEFLNKMTEAQEDGQSTSELIGQFGVGFYSAFLVADKVIVTSKHNNDTQHIWESDSNEFSVIADPRGNTLGRGTTITLVLKEEASDYLELDTIKNLVKKYSQFINFPIYVWSSKTETVEEPMEEEEAAKEEKEESDDEAAVEEEEEEKKPKTKKVEKTVWDWELMNDIKPIWQRPSKEVEEDEYKAFYKSFSKESDDPMAYIHFTAEGEVTFKSILFVPTSAPRGLFDEYGSKKSDYIKLYVRRVFITDDFHDMMPKYLNFVKGVVDSDDLPLNVSRETLQQHKLLKVIRKKLVRKTLDMIKKIADDKYNDTFWKEFGTNIKLGVIEDHSNRTRLAKLLRFQSSHHPTDITSLDQYVERMKEKQDKIYFMAGSSRKEAESSPFVERLLKKGYEVIYLTEPVDEYCIQALPEFDGKRFQNVAKEGVKFDESEKTKESREAVEKEFEPLLNWMKDKALKDKIEKAVVSQRLTESPCALVASQYGWSGNMERIMKAQAYATGKAISTNAAASQKKTFEINPRHPLIRDMLRRIKEDEDDKTVLDLAVVLFETATLRSGYLLPDTKAYGDRIERMLRLSLNIDPDAKVEEEPEEEPEETAEDTTEDTEQDEDEEMDVGTDEEEETAKESTAEYPYDVPDYA
B4: SEQ ID. NO. 64: alanine-scanning mutant of GRP94-ΔKDEL, CBD region YAASAAAAAIMKAQAYQTGKDISTNYY (SEQ ID. NO. 78) (protein, listed as Homo Sapiens)
chain: MRALWVLGLCCVLLTFGSVRADDEVDVDGTVEEDLGKSREGSRTDDEVVQREEEAIQLDGLNASQIRELREKSEKFAFQAEVNRMMKLIINSLYKNKEIFLRELISNASDALDKIRLISLTDENALSGNEELTVKIKCDKEKNLLHVTDTGVGMTREELVKNLGTIAKSGTSEFLNKMTEAQEDGQSTSELIGQFGVGFYSAFLVADKVIVTSKHNNDTQHIWESDSNEFSVIADPRGNTLGRGTTITLVLKEEASDYLELDTIKNLVKKYSQFINFPIYVWSSKTETVEEPMEEEEAAKEEKEESDDEAAVEEEEEEKKPKTKKVEKTVWDWELMNDIKPIWQRPSKEVEEDEYKAFYKSFSKESDDPMAYIHFTAEGEVTFKSILFVPTSAPRGLFDEYGSKKSDYIKLYVRRVFITDDFHDMMPKYLNFVKGVVDSDDLPLNVSRETLQQHKLLKVIRKKLVRKTLDMIKKIADDKYNDTFWKEFGTNIKLGVIEDHSNRTRLAKLLRFQSSHHPTDITSLDQYVERMKEKQDKIYFMAGSSRKEAESSPFVERLLKKGYEVIYLTEPVDEYCIQALPEFDGKRFQNVAKEGVKFDESEKTKESREAVEKEFEPLLNWMKDKALKDKIEKAVVSQRLTESPCALVASQYAASAAAAAIMKAQAYQTGKDISTNYYASQKKTFEINPRHPLIRDMLRRIKEDEDDKTVLDLAVVLFETATLRSGYLLPDTKAYGDRIERMLRLSLNIDPDAKVEEEPEEEPEETAEDTTEDTEQDEDEEMDVGTDEEEETAKESTAEYPYDVPDYA

Key:
[1] = biological target: T1, PCSK9-V5 (Homo sapiens, UniProt Q8NBP7); test: Co-immunoprecipitation of GRP94 constructs with PCSK9-V5 in transfected HEK293 cells; format: binding
T1 construct: Full-length human V5-tagged PCSK9 and LDLR were subcloned into pIRES2-EGFP; expressed in transfected cells; host or cells: HEK293
T1 sequence (Q8NBP7 153-692): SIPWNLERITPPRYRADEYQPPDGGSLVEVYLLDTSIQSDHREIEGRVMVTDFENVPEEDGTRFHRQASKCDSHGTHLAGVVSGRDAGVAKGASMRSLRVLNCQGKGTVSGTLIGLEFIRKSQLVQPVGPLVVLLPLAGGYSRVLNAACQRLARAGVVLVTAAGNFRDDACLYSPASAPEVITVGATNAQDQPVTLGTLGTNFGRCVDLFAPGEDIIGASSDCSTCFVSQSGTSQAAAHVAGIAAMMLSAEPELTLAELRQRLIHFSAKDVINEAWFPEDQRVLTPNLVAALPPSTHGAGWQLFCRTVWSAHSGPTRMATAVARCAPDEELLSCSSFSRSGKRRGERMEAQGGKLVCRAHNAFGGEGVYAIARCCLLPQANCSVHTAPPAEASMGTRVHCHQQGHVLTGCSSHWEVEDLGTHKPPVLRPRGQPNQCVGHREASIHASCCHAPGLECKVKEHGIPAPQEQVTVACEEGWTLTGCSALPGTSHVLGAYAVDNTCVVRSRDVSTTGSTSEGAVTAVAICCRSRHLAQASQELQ
Method: FIG. 2: Mapping of the PCSK9-GRP94 interacting domain. (a-b) HEK293 cells were transfected without (−) or with (+) PCSK9-V5 or SEQ ID NO. 66, 64 or 65. A PCSK9 V5 epitope-tag fusion protein (PCSK9-V5) was immune-precipitated from cell lysates using mAb-V5 antibody (IP: V5) and immune-blotted as indicated. Total GRP94 (SEQ. ID. NO. 3) and PCSK9 (SEQ. ID. NO. 1) protein levels were analyzed by immune-blotting in cell lysates (input) and conditioned media. (c) Left panel; HEK293 cells were transfected without (−) or with (+) PCSK9-V5, SEQ. ID. NO. 66 or 46. PCSK9-V5 was immune-precipitated for cell lysates (IP: V5) and immune-blotted (IB) as indicated. Total GRP94 and PCSK9 protein levels were also analyzed by immune-blotting and herein used as a control (input). Right panel; GRP94 homodimer (gray and yellow) crystal structure was determined from PDB file #2O1V using MacPymol software. […] 6 in which critical residues for PCSK9 binding determined in (b) are indicated in blue for SEQ. ID. NO. 64 and red for SEQ. ID. NO. 65. Data are representative of at least three independent experiments.
For identification of novel PCSK9 interactors, HepG2 or Huh-7 cells (55 cm2) were washed three times in phosphate-buffered saline (PBS) and incubated with 1 mM dithiobis[succinimidylpropionate] (DSP; Cat. #22585, Thermo Scientific), a thiol-cleavable cross-linking reagent, for 30 min at room temperature and subsequently switch for 15 min into a stop solution (15 mM Tris, pH 7.5). Cells were then lysed in complete radio-immune precipitation assay (RIPA) buffer (50 mM Tris/HCl, pH 8.0, 1% (v/v) Nonidet P40, 0.5% sodium deoxycholate, 150 mM NaCl and 0.1% (v/v) sodium dodecyl sulfate (SDS)) supplemented with a complete protease inhibitor mixture (Cat. #11 697 498 001, Roche Applied Science), passed 25 times through a 22-gauge needle and centrifuged at 11,000 g for 15 min at 4° C. Supernatants were incubated and rotated overnight with pre-immune serum, rabbit anti-hPCSK9 (amino acids 31-454) (1:250; Dr. Nabil Seidah, Clinical Research Institute of Montreal) or mouse anti-V5-tag (1:500; Cat. #R96025, Life Technologies) together with 50 μl protein A/G PLUS-agarose (Cat. #sc-2003, Santa Cruz). Following overnight incubation, beads were washed six times in RIPA buffer and resuspended in 75 μl Laemmli sample buffer. Co-immunoprecipitated (Co-IP) proteins were separated by 8% SDS-polyacrylamide gel electrophoresis and visualized using the Pierce silver stain kit (Cat. #24600, Thermo Scientific) according the manufacturer's instructions. All other Co-IP experiments were performed as described without the cross-linking step and in SDS-deprived RIPA buffer. HA-tagged proteins and GRP94 were immunoprecipitated with mouse anti-HA-tag (1:500; Cat. #H3663, Sigma-Aldrich) or rat anti-Grp94 (9G10, 1:1000; Cat. #ADI-SPA-850, Enzo Life Sciences).
We next decided to map GRP94 domain(s) important for PCSK9 protein-protein interaction. The overall domain structure of GRP94 includes a signal polypeptide (amino acids; aa1-21) followed by a N-terminal enzymatic ATP-binding domain (aa22-651), client-binding domain (CBD; aa652-678), C-terminal dimerization domain (aa679-799) and a KDEL polypeptide sequence (aa800-803) allowing retention of GRP94 in the endoplasmic reticulum. (Dollins et al., 2007; Maki et al., 1990; Wu et al., 2012) Thus, we first generated cDNA constructs encoding secretable HA-tagged forms of human GRP94 lacking its C-terminal KDEL polypeptide (SEQ ID. NO. 66; FIG. 2). HEK293 cells were transfected without or with SEQ ID. NO. 66 in absence or presence of PCSK9-V5 (FIG. 2a). […] NO. 66 is well expressed (Input; IB: HA) and secreted into media and that SEQ ID. NO. […] It was reported that a 27 aa C-terminal hydrophobic loop structure within GRP94 client-binding domain (CBD, amino acids aa652-678; ^652[…], SEQ ID. NO. 4) was important for folding and interaction with Toll-like receptors and integrins. (Wu et al., 2012) Deletion or alanine-scan mutations in SEQ ID. […]

[2] = test system: LDLR degradation induced by overexpression of PCSK9; test: LDLR degradation after co-expression with PCSK9-V5 (intracellular pathway), immunoblot; format: cell-based, human
Method: FIG. 7: SEQ ID NO. 6 prevents PCSK9-induced LDLR degradation. (a) Left; Coomassie staining of purified recombinant SEQ ID NO. 6 and PCSK9 separated by SDS-PAGE is shown. Right; HepG2 cells were incubated in DMEM without or with 0, 25, 100 or 250 nM SEQ ID NO. 6 alone or in presence of recombinant PCSK9. (b) HepG2 cells were transfected without (−) or with PCSK9-V5 in absence (−) or presence SEQ ID NO. 66 or SEQ ID NO. 46. Total LDLR, PCSK9, SEQ ID NO. 66, SEQ ID NO. 46 and β-actin protein levels were analyzed by immunoblotting in cell lysates and conditioned media as indicated. Data are representative of at least three independent experiments.
We next tested whether SEQ ID. NO. 6 could alter the capacity of PCSK9 to induce LDLR degradation. HepG2 cells were incubated overnight with an increasing amount of recombinant SEQ ID. NO. 6 in absence or presence of exogenous PCSK9 (FIG. 7a). […] NO. […] Although that SEQ ID. NO. […] NO. […] (Poirier et al., 2009) As PCSK9 was also shown to induce LDLR degradation via an intracellular pathway, (Poirier et al., 2009) we evaluated to ability of SEQ ID. NO. 66 or SEQ ID. NO. 46 to neutralize PCSK9 in HepG2 cells following co-expression (FIG. 7b). Similar to the extracellular pathway (FIGS. 5b and 7a), both SEQ ID. NO. 66 and SEQ ID. NO. […] NO. 66 and specifically SEQ ID. NO. […]

Molecule | Interaction (binding) with PCSK9 by co-immunoprecipitation [1] | Block of LDLR degradation induced by overexpression of PCSK9 [2] | Interaction (binding) with PCSK9 by co-immunoprecipitation ([1]; listed as AA2) | Interaction (binding) with PCSK9 by co-immunoprecipitation ([1]; listed as AA1)
B1 | significantly enhanced | – | – | –
B2 | – | significantly block | – | –
B3 | abrogate binding to PCSK9 | – | abolished PCSK9 binding | –
B4 | abrogate binding to PCSK9 | – | – | abolished PCSK9 binding
